We go through 14 molecules from US20200071711, “MODULAR CONSTRUCTION OF SYNTHETIC GENE CIRCUITS IN MAMMALIAN CELLS USING MATHEMATICAL MODELING OF CLOSED LOOP TRANSCRIPTIONAL REPRESSORS” (Tsinghua University, published 2020).

One series concerns TALER10 (synthetic). The series can be described thus: cell_activity. As to conditions: for activity (mKate2/TagBFP): cognate 0.00.
A further series deals with TALER9 (synthetic). Nature of the series: cell_activity. The conditions noted are these: for activity (mKate2/TagBFP): cognate 0.01.
A further series concerns TALER5 (synthetic). The series can be described thus: cell_activity.
Another series concerns the target T1, TALER24 (synthetic, UniProt P14727 SEQ:1-806).
T1 chain: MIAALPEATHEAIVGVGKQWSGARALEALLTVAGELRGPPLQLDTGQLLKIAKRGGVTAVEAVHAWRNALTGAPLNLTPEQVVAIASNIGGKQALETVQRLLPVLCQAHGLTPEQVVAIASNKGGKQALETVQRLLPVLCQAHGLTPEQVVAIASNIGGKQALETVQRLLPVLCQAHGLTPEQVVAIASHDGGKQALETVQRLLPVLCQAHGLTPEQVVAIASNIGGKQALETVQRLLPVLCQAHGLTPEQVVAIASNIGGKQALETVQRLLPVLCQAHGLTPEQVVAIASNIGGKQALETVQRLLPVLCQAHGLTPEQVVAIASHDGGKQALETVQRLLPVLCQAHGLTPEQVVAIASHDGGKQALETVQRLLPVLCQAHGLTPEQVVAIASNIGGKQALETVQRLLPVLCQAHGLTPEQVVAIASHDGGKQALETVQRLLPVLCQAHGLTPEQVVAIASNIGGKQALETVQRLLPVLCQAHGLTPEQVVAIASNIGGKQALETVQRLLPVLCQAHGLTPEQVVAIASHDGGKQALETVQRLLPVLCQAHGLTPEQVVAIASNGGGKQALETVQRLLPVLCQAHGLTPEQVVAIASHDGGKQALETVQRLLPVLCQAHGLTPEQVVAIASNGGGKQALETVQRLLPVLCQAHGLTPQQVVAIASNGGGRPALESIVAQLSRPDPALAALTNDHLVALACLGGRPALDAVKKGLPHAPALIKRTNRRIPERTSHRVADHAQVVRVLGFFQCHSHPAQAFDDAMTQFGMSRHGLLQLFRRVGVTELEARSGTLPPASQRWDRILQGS
Nature of the series: cell_activity; HEK293, two sites flanking CMVmini. As to conditions: tags: EYFP-2A upstream, SV40 NLS.

Another series concerns the target T2, TALER26 (synthetic, UniProt P14727 SEQ:263-1244).
T2 chain: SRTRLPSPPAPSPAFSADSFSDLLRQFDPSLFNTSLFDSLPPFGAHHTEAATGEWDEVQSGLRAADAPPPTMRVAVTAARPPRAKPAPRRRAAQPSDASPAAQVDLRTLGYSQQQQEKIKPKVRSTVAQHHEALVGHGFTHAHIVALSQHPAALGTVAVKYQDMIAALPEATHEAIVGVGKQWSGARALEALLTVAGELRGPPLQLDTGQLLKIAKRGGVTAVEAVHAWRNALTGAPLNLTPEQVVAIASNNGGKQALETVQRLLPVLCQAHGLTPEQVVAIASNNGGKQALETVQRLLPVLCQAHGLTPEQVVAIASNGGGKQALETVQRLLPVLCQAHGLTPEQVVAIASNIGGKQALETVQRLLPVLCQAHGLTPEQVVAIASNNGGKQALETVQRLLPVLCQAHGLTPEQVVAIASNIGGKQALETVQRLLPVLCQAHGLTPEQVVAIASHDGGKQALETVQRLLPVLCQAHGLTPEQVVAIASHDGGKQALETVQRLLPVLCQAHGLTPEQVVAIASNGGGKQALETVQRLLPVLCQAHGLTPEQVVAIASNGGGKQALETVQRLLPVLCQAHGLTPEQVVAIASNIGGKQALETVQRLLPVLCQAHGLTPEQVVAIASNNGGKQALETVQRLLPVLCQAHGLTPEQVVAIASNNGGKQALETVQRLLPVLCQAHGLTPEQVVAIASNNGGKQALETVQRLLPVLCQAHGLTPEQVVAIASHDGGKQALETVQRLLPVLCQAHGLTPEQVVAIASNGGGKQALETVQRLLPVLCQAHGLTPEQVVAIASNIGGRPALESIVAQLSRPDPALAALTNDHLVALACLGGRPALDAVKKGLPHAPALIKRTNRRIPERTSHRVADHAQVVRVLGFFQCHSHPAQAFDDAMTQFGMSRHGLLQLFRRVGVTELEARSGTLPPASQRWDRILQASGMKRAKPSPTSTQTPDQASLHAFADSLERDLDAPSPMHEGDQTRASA
The series can be described thus: cell_activity; HEK293, two sites flanking CMVmini. The conditions noted are these: tags: EYFP-2A upstream, SV40 NLS.

Where [1] appears, read: HEK293, two sites flanking CMVmini.

As for “TACCCCTCTCCGCTTCT (double strand) [T14 site]”, the figures for the activity (mKate2/TagBFP) with TALER10 (synthetic) and with TALER9 (synthetic) were 1.46 and 4.42, respectively.
For the molecule “TACCTCATCAGGAACATGTT (double strand) [T10 site]”, the binding signal (fold repression) in the series on TALER10 (synthetic) (setting [1]) came out at 1310. The activity (mKate2/TagBFP) with TALER9 (synthetic) worked out at 2.54.
In the case of “TACGACTCACTATA (double strand) [T1 site]”, the activity (mKate2/TagBFP) in the series with TALER10 (synthetic) amounted to 2.51; with TALER9 (synthetic), 5.14.
Regarding “TACTGAATAATCAACACT (double strand) [T5 site]”, in the series on TALER5 (synthetic) (setting [1]), the binding signal (fold repression) was 17.9.
Turning to “TACTGAATAATCAACACTGAATTCTAGGCGTGTACGGTGGGAGGCCTATATAAGCAGAGCTCGTTTAGTGAACCGTCAGATCGCCTCGAGTACTGAATAATCAACACTTACTGAATAATCAACACTTACTGAATAATCAACACT (double strand) [T5-CMVmini-T5x3]”, the binding signal (fold repression) in the series with TALER5 (synthetic) (HEK293, three 3' sites (15.43 with one)) is 281.
The molecule “TATAGAACCGATCCTCCCATT (double strand) [T9 site]” came in with an activity (mKate2/TagBFP) in the series with TALER10 (synthetic) of 0.84. In the series on TALER9 (synthetic) (setting [1]), this molecule returned a binding signal (fold repression) of 636.
In the case of “TATTTCGACGCTCATTCT (double strand) [T12 site]”, the activity (mKate2/TagBFP) with TALER10 (synthetic) turned out to be 1.04; in the series with TALER9 (synthetic) it was 2.38.
“TCCCGGAAGCCGATGCT (double strand) [T13 site]”: the activity (mKate2/TagBFP) came out at 0.93 with TALER10 (synthetic) and 2.17 in the series on TALER9 (synthetic).
For “TCCGCCTCCCTCTC (double strand) [T29 site]”, the values for the activity (mKate2/TagBFP) with TALER10 (synthetic) and with TALER9 (synthetic) were 1.19 and 2.94, respectively.
In the case of “TGCCCTCGGCCATCAGAAGGATCTT (double strand) [T16 site]”, the values for the activity (mKate2/TagBFP) in the series with TALER10 (synthetic) and in the series on TALER9 (synthetic) were 1.66 and 3.97, respectively.
In the case of “TGTCGTCTTCTGCACTTAT (double strand) [T21 site]”, the activity (mKate2/TagBFP) in the series with TALER10 (synthetic) came to 1.06; in the series with TALER9 (synthetic), 2.95.
In the same order, the values of “TTTATTCCCTGACA (double strand) [T35 site]” are 1.03 and 2.15.

B1: T24 site (dsDNA)
DNA 1: TAGACAAACCACAACTCTT
DNA 2: AAGAGTTGTGGTTTGTCTA
B1 displayed a binding signal in the series with TALER24 of 10.9 fold repression.

B2: T26 site (dsDNA)
DNA 1: TGGTAGACCTTAGGGCTA
DNA 2: TAGCCCTAAGGTCTACCA
Consider B2, for which the binding signal with TALER26 worked out at 148 fold repression.
